Results reported in patent publication US20220267750A1 (Merck KGaA, published 2022).

Biological target: GP41-1 C-intein-thioredoxin fusion protein (CINT_TRX)
Assay: cell-based or functional assay

B1: GP41-1 N-intein variant NINTΔA_TM fused with solubilization partner 138 (other)
chain: MTRSGYALDLKTQVQTPQGMKEISNIQVGDLVLSNTGYNEVLNVFPKSKKKSYKITLEDGKEIITSEEHLFPTQTGEMNISGGLKEGMMLYVKEGGMNKDEAGGNWKQFKGKVKEQWGKLTDDDMTIIEGKRDQLVGKIQERYGYQKDQAEKEVVDWETRNEYRW
- catalytic rate (cleavage rate): ~3 fold of the parent construct NINTΔA_CC
